Here are results for one substance from patent US20140004107A1.

For this assay, the target named is human ST2 on human primary cells (human) (UniProt Q01638). The assay can be described thus: cell-based or functional assay.
Sequence of human ST2 on human primary cells (human) (Q01638 19-556 A78X): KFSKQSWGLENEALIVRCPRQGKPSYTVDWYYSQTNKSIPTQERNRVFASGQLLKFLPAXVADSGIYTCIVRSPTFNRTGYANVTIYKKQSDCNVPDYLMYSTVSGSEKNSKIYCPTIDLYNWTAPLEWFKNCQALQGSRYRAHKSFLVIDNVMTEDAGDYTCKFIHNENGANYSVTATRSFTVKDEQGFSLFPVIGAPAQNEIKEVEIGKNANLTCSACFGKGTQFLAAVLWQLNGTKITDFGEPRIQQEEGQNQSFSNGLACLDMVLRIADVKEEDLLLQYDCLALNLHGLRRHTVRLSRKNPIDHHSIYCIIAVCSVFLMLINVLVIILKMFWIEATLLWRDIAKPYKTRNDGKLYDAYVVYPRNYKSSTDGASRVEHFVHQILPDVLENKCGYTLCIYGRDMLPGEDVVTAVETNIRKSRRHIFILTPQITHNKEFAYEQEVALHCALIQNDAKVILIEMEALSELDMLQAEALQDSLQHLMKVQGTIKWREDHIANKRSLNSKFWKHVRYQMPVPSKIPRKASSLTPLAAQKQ

In the case of 97203 (antibody), the IC50 of inhibition of IL-33-dependent IFN-γ response of human NK cells (IL-33 10 ng/mL plus IL-12) came to 0.385 µg/mL.
